First the molecules themselves.
T1: Mcm4 (S. cerevisiae, UniProt P30665 1-933)
T1 construct: Mcm4, S. cerevisiae; Subunit as it stands in the DH of the cryo-EM structures; modelled from residue 155 in the DDK-engaged model; also called Mcm4 subunit; source: S. cerevisiae, overexpressed as Mcm2-7-Cdt1, purified; in the DNA-loaded double hexamer
T1 sequence: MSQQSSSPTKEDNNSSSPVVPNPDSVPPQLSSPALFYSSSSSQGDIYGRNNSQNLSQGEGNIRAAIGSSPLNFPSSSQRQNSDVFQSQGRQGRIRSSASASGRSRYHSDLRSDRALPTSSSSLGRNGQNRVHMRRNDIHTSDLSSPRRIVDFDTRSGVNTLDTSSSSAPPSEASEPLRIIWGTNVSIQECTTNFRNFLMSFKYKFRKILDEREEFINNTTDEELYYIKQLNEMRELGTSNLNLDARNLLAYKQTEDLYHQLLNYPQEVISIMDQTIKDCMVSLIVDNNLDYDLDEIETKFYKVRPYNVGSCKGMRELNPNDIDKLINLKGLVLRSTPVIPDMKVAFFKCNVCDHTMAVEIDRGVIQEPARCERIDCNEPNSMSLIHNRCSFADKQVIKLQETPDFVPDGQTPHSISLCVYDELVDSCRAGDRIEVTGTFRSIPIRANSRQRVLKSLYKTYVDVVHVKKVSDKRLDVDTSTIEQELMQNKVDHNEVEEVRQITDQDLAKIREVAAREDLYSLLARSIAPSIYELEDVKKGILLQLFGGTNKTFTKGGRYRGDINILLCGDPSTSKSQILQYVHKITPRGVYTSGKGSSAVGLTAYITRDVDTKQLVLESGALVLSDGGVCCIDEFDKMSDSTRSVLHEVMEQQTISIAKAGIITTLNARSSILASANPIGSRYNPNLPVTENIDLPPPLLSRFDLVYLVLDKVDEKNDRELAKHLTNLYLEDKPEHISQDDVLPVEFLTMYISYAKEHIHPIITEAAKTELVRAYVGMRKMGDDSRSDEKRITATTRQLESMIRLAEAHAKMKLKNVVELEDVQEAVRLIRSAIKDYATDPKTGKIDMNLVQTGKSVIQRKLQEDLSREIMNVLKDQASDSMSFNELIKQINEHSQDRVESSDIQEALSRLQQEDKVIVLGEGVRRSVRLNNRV

T2: Mcm2 (S. cerevisiae, UniProt P29469 1-868)
T2 construct: Mcm2, S. cerevisiae; Subunit as it stands in the DH of the cryo-EM structures; also called Mcm2 subunit; source: S. cerevisiae, overexpressed as Mcm2-7-Cdt1, purified; in the DNA-loaded double hexamer
T2 sequence: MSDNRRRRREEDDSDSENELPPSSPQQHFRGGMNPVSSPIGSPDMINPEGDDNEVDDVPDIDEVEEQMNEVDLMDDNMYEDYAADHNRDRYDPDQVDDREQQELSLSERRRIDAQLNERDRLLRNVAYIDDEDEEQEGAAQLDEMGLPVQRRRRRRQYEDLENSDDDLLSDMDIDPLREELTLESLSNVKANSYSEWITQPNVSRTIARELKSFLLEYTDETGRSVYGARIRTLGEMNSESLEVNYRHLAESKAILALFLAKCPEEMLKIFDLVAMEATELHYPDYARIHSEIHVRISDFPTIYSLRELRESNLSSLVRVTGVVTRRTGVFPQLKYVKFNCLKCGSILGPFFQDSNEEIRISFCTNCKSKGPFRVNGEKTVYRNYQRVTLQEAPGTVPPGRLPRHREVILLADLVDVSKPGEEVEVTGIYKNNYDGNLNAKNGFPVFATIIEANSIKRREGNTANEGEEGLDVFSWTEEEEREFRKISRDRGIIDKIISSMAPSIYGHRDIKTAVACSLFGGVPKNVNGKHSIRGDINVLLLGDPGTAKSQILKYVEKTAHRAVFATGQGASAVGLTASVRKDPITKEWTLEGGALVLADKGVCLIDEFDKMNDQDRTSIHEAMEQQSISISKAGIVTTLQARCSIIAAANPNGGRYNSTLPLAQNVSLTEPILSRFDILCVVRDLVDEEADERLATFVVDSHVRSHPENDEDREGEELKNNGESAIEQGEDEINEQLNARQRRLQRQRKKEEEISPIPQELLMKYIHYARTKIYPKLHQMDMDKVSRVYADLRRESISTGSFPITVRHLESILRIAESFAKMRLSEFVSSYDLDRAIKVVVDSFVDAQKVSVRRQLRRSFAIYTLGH

B1: Mcm7 (natural protein, S. cerevisiae)
chain: MSAALPSIQLPVDYNNLFNEITDFLVTFKQDTLSSDATRNENEDENLDAENIEQHLLEKGPKYMAMLQKVANRELNSVIIDLDDILQYQNEKFLQGTQADDLVSAIQQNANHFTELFCRAIDNNMPLPTKEIDYKDDVLDVILNQRRLRNERMLSDRTNEIRSENLMDTTMDPPSSMNDALREVVEDETELFPPNLTRRYFLYFKPLSQNCARRYRKKAISSKPLSVRQIKGDFLGQLITVRGIITRVSDVKPAVEVIAYTCDQCGYEVFQEVNSRTFTPLSECTSEECSQNQTKGQLFMSTRASKFSAFQECKIQELSQQVPVGHIPRSLNIHVNGTLVRSLSPGDIVDVTGIFLPAPYTGFKALKAGLLTETYLEAQFVRQHKKKFASFSLTSDVEERVMELITSGDVYNRLAKSIAPEIYGNLDVKKALLLLLVGGVDKRVGDGMKIRGDINVCLMGDPGVAKSQLLKAICKISPRGVYTTGKGSSGVGLTAAVMKDPVTDEMILEGGALVLADNGICCIDEFDKMDESDRTAIHEVMEQQTISISKAGINTTLNARTSILAAANPLYGRYNPRLSPLDNINLPAALLSRFDILFLMLDIPSRDDDEKLAEHVTYVHMHNKQPDLDFTPVEPSKMREYIAYAKTKRPVMSEAVNDYVVQAYIRLRQDSKREMDSKFSFGQATPRTLLGIIRLSQALAKLRLADMVDIDDVEEALRLVRVSKESLYQETNKSKEDESPTTKIFTIIKKMLQETGKNTLSYENIVKTVRLRGFTMLQLSNCIQEYSYLNVWHLINEGNTLKFVDDGTMDTDQEDSLVSTPKLAPQTTASANVSAQDSDIDLQDA
notes: Mcm7, S. cerevisiae; also called Mcm7 subunit; source: S. cerevisiae, overexpressed as Mcm2-7-Cdt1, purified; in the DNA-loaded double hexamer
B2: Dbf4 (natural protein, S. cerevisiae)
chain: MVSPTKMIIRSPLKETDTNLKHNNGIAASTTAAGHLNVFSNDNNCNNNNTTESFPKKRSLERLELQQQQHLHEKKRARIERARSIEGAVQVSKGTGLKNVEPRVTPKELLEWQTNWKKIMKRDSRIYFDITDDVEMNTYNKSKMDKRRDLLKRGFLTLGAQITQFFDTTVTIVITRRSVENIYLLKDTDILSRAKKNYMKVWSYEKAARFLKNLDVDLDHLSKTKSASLAAPTLSNLLHNEKLYGPTDRDPRTKRDDIHYFKYPHVYLYDLWQTWAPIITLEWKPQELTNLDELPYPILKIGSFGRCPFIGDRNYDESSYKRVVKRYSRDKANKKYALQLRALFQYHADTLLNTSSVNDQTKNLIFIPHTCNDSTKSFKKWMQEKAKNFEKTELKKTDDSAVQDVRNEHADQTDEKNSILLNETETKEPPLKEEKENKQSIAEESNKYPQRKELAATPKLNHPVLATFARQETEEVPDDLCTLKTKSRQAFEIKASGAHQSNDVATSFGNGLGPTRASVMSKNMKSLSRLMVDRKLGVKQTNGNNKNYTATIATTAETSKENRHRLDFNALKKDEAPSKETGKDSAVHLETNRKPQNFPKVATKSVSADSKVHNDIKITTTESPTASKKSTSTNVTLHFNAQTAQTAQPVKKETVKNSGYCENCRVKYESLEQHIVSEKHLSFAENDLNFEAIDSLIENLRFQI
notes: Dbf4, S. cerevisiae; Subunit as it stands in DDK in the DH-DDK cryo-EM structure; also called Dbf4 subunit of DDK; CBP-Dbf4; source: S. cerevisiae, overexpressed with Cdc7, purified as DDK
B3: Cdc7 (enzyme, S. cerevisiae)
chain: MTSKTKNIDDIPPEIKEEMIQLYHDLPGIENEYKLIDKIGEGTFSSVYKAKDITGKITKKFASHFWNYGSNYVALKKIYVTSSPQRIYNELNLLYIMTGSSRVAPLCDAKRVRDQVIAVLPYYPHEEFRTFYRDLPIKGIKKYIWELLRALKFVHSKGIIHRDIKPTNFLFNLELGRGVLVDFGLAEAQMDYKSMISSQNDYDNYANTNHDGGYSMRNHEQFCPCIMRNQYSPNSHNQTPPMVTIQNGKVVHLNNVNGVDLTKGYPKNETRRIKRANRAGTRGFRAPEVLMKCGAQSTKIDIWSVGVILLSLLGRRFPMFQSLDDADSLLELCTIFGWKELRKCAALHGLGFEASGLIWDKPNGYSNGLKEFVYDLLNKECTIGTFPEYSVAFETFGFLQQELHDRMSIEPQLPDPKTNMDAVDAYELKKYQEEIWSDHYWCFQVLEQCFEMDPQKRSSAEDLLKTPFFNELNENTYLLDGESTDEDDVVSSSEADLLDKDVLLISE
notes: Cdc7, S. cerevisiae; Subunit as it stands in DDK in the DH-DDK cryo-EM structure; also called Cdc7 catalytic subunit of DDK; source: S. cerevisiae, overexpressed with CBP-Dbf4, purified as DDK

Experiment in all cases: cryo-EM structure; DH loaded with ORC, Cdc6 and Mcm2-7-Cdt1 (96 nM each) on MH-capped ARS1 DNA (8 nM) in buffer B at 30 °C, then 289 nM DDK for 50 min before plunge-freezing; neither crosslinking nor nucleotide analogs
Details in all cases: both partners purified

In one assay the target is T3, Mcm3 (S. cerevisiae, UniProt P24279 1-971).
T3 construct: Mcm3, S. cerevisiae; also called Mcm3 subunit; source: S. cerevisiae, overexpressed as Mcm2-7-Cdt1, purified; in the DNA-loaded double hexamer
T3 sequence (P24279 whole entry): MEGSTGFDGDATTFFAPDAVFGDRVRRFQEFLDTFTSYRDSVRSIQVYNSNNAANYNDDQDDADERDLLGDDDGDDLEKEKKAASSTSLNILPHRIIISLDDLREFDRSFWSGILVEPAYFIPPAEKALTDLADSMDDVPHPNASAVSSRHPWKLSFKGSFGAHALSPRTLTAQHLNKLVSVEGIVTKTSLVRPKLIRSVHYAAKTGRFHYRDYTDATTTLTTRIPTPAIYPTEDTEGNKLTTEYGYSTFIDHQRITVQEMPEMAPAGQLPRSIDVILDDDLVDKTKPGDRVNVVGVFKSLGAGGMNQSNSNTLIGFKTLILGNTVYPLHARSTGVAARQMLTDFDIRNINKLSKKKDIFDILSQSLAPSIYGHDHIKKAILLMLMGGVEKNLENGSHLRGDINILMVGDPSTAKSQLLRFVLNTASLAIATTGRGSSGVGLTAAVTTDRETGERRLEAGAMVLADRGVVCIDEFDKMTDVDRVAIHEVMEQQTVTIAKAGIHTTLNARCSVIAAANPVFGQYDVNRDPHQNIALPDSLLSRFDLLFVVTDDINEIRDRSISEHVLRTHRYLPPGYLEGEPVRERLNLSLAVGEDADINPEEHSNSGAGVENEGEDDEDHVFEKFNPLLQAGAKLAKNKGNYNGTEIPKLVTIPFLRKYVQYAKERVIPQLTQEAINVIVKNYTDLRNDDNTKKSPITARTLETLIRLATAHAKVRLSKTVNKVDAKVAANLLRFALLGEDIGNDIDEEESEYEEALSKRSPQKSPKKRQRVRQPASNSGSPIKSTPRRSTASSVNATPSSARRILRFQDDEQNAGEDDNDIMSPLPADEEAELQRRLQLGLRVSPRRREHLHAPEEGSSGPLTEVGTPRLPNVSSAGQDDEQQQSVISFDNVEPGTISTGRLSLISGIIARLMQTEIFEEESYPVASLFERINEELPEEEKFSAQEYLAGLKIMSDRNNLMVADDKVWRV

A further assay concerns the target T1, Mcm4.
The target of a further assay is T2, Mcm2.
The target of the assay “Dbf4” is B2.

The values below come from article PMC8770131, “Structural mechanism for the selective phosphorylation of DNA-loaded MCM double hexamers by the Dbf4-dependent kinase” (Nature Structural & Molecular Biology, 2021).

Turning to B1, the binding result in the assay with Mcm3 and in the assay with Mcm4 was “binds” in each case.

As for B2, the binding result with Mcm2 and in the assay with Mcm4 was “binds” throughout.

As for B3, the binding result in the assay with Dbf4 and with Mcm4 was “binds” throughout.
